Results from patent publication US20200087395 (published 2020).

What was measured:
[1] = molecular target: T1, cynomolgus CD200RLa (activating form) (cynomolgus monkey); test: SPR, 37C
T1 chain: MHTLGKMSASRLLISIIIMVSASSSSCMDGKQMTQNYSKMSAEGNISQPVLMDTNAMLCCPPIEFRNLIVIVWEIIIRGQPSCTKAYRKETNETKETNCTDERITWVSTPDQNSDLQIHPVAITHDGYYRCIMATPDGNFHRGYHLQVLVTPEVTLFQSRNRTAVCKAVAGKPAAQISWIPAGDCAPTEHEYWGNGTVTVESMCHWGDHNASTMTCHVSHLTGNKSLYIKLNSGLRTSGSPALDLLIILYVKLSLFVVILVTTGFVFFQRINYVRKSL

[2] = molecular target: FcγRIIIA_158F ECD (human, UniProt P08637); test: SPR, 25C
Sequence of FcγRIIIA_158F ECD (P08637 17-208): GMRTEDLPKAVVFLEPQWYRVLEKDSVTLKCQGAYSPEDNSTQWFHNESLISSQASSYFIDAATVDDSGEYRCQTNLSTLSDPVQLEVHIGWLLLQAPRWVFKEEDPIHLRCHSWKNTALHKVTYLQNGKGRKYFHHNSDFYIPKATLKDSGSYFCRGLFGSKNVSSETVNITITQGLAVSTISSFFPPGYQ

[3] = molecular target: T1, cynomolgus CD200RLa (activating form); test: FACS
[4] = molecular target: T2, mouse CD200R (mouse, UniProt Q9ES57); test: SPR, 37C
T2 chain: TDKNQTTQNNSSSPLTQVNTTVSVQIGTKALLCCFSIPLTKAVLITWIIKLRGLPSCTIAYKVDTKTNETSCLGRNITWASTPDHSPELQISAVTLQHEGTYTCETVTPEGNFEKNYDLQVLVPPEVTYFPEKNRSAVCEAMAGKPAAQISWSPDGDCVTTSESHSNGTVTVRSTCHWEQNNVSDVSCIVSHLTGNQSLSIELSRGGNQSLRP

Kd [1]: 2500 nM
Kd [2]: > 10 µM
binding result [3]: no binding
Kd [4]: > 10 µM
B1: Antibody I-4P (antibody)
chain 1: not shown
chain 2: EIVLTQSPDFQSVTPKEKVTITCQASESIDSYLLWYQQKPDQSPKLLIKQASTLASGVPSRFSGSGSGTDFTLTINSLEAEDAATYYCQNYYDISSNDFGGGTKVEIKRTVAAPSVFIFPPSDEQLKSGTASVVCLLNNFYPREAKVQWKVDNALQSGNSQESVTEQDSKDSTYSLSSTLTLSKADYEKHKVYACEVTHQGLSSPVTKSFNRGEC
modifications: listing feature
